For experiment [1], the target named is PD-L1 (UniProt Q9NZQ7). Kind of experiment: competition ELISA, PD-1 at 50 μg/ml, BP at 200 μg/ml. (ELISA stands for enzyme-linked immunosorbent assay.)
The target in experiment [2] is PD-L1 (UniProt Q9NZQ7). Kind of experiment: ELISA, PD-L1 coated, BP at 200 μg/ml, reference PD-1 binding PD-L1.

Sequence of UniProt Q9NZQ7 (Q9NZQ7 19-238 limits assumed): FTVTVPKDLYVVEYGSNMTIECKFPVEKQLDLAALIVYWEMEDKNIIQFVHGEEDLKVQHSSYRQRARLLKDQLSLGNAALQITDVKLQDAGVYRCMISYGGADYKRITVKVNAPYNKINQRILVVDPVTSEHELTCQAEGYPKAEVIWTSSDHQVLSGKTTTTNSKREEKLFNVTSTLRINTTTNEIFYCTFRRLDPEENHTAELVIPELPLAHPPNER

B1: 拮抗PD-1的抗体类似物BP蛋白 (VHH, not shown: small tags and cut ends)
VHH: DVQLQASGGGSVQAGGSLRLSCAASGYTIGTYAISWFRQAPGKEREGVAGIIPIFGKAHTYYADSVKGRFTISQDNAKNTVYLLMNSLEPEDTAIYYCAAKFHFVSGSPFGMDSWGQGTQVTVSS
On to B1, for which the 抑制率 (inhibition of PD-1 binding to PD-L1) with PD-L1 [1] is 25%. The same molecule came in with a 结合强度 (relative to PD-1 binding PD-L1) in the experiment with PD-L1 [2] of 115%.

Values taken from CN110982824A.
